Laboratory results as given in PMC6555819, “Comprehensive study of nuclear receptor DNA binding provides a revised framework for understanding receptor specificity”.

How the values were obtained:
PPARg:RXRa = PPARg:RXRa (Homo sapiens, UniProt P37231;P19793 full;full); test: no ligand; PBM; 180 nM : 90 nM RXRa; PBS pH 7.4, 2% milk, 0.02% Triton X-100, 1 mM DTT, BSA, 0.4 mg/ml salmon testes DNA; settings: tags: His kept;His cleaved; copies: 1;1; label: surface-attached array probe
RXRa = RXRa (Homo sapiens, UniProt P19793); test: no ligand; PBM; 180 nM; PBS pH 7.4, 2% milk, 0.02% Triton X-100, 1 mM DTT, BSA, 0.4 mg/ml salmon testes DNA; settings: tags: His cleaved; chain copies: 2; label: surface-attached array probe
FXR:RXRa = FXR:RXRa (Homo sapiens, UniProt Q96RI1;P19793 full;full); test: no ligand; PBM; 270 nM : 90 nM RXRa; PBS pH 7.4, 2% milk, 0.02% Triton X-100, 1 mM DTT, BSA, 0.4 mg/ml salmon testes DNA; settings: tags: His kept;His cleaved; copies: 1;1; label: surface-attached array probe
How it was run: (§1)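 On custom Agilent 4×180K arrays, double-stranded probes with 34-nt variable regions carried direct-repeat seeds, single-nucleotide variants, half-site ablations or random human genomic background. Ligand-free nuclear receptor dimers were applied for 1 h, and binding was read with antibodies against each partner (one per run). Binding z-scores come from regression-normalized fluorescence, with the random background probes as reference.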

PPARa:RXRa = PPARa:RXRa (Homo sapiens, UniProt Q07869;P19793 full;full); test: as above; settings: tags: GST kept;His cleaved; copies: 1;1; label: surface-attached array probe
How it was run: as §1

RARg:RXRa = RARg:RXRa (Homo sapiens, UniProt P13631;P19793 full;full); test: as above; settings: tags: His kept;His cleaved; copies: 1;1; label: surface-attached array probe
How it was run: as §1

PXR:RXRa = PXR:RXRa (Homo sapiens, UniProt O75469;P19793 full;full); test: as above; settings: tags: His kept;His cleaved; copies: 1;1; label: surface-attached array probe
How it was run: as §1

LXRa:RXRa = LXRa:RXRa (Homo sapiens, UniProt Q13133;P19793 full;full); test: as above; settings: tags: His kept;His cleaved; copies: 1;1; label: surface-attached array probe
How it was run: as §1

LXRb:RXRa = LXRb:RXRa (Homo sapiens, UniProt P55055;P19793 full;full); test: as above; settings: tags: His kept;His cleaved; copies: 1;1; label: surface-attached array probe
How it was run: as §1

RARb:RXRa = RARb:RXRa (Homo sapiens, UniProt P10826;P19793 full;full); test: as above; settings: tags: His kept;His cleaved; copies: 1;1; label: surface-attached array probe
How it was run: as §1

VDR:RXRa = VDR:RXRa (Homo sapiens, UniProt P11473;P19793 full;full); test: as above; settings: tags: His kept;His cleaved; copies: 1;1; label: surface-attached array probe
How it was run: as §1

LXRb:RXRa, sequence (P55055 whole entry, chain 1 of 2): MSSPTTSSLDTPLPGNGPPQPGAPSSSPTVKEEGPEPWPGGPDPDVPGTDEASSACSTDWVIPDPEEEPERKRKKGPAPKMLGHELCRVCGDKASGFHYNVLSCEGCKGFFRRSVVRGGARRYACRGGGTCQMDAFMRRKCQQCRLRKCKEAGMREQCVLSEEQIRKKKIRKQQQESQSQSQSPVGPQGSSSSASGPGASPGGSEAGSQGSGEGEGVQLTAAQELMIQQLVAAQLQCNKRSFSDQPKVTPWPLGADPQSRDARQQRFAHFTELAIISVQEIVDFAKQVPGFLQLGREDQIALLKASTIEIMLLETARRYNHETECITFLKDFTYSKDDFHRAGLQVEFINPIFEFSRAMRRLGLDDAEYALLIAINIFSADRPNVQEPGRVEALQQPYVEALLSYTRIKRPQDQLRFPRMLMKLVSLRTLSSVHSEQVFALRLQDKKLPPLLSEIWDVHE
LXRb:RXRa, sequence (P19793 whole entry, chain 2 of 2): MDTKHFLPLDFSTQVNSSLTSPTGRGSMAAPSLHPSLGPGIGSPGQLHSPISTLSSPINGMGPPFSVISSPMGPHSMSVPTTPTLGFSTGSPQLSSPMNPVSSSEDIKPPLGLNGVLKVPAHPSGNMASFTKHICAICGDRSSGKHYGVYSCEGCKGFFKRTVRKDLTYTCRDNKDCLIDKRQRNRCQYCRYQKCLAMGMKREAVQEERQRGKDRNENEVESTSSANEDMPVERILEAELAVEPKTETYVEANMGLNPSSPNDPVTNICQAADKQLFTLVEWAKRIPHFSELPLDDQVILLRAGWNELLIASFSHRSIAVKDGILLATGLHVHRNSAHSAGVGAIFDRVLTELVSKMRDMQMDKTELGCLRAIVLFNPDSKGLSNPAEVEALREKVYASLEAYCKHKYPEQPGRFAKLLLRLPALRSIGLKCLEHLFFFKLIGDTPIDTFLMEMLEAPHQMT
RXRa, sequence (P19793 whole entry): as the sequence (P19793 whole entry, chain 2 of 2) above
LXRa:RXRa, sequence (Q13133 whole entry, chain 1 of 2): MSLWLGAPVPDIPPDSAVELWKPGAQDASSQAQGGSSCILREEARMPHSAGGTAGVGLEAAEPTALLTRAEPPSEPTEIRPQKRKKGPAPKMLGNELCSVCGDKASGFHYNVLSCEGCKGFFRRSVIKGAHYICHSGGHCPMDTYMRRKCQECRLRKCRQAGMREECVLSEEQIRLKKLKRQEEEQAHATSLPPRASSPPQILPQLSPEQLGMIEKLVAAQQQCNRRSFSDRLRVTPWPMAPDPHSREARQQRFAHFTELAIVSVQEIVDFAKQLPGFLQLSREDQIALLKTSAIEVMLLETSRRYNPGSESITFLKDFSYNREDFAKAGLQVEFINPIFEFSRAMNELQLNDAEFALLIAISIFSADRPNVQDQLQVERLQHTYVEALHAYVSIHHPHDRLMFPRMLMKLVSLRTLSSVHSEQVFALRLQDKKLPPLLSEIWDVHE
LXRa:RXRa, sequence (P19793 whole entry, chain 2 of 2): as the sequence (P19793 whole entry, chain 2 of 2) above
PPARg:RXRa, sequence (P37231 29-505, chain 1 of 2): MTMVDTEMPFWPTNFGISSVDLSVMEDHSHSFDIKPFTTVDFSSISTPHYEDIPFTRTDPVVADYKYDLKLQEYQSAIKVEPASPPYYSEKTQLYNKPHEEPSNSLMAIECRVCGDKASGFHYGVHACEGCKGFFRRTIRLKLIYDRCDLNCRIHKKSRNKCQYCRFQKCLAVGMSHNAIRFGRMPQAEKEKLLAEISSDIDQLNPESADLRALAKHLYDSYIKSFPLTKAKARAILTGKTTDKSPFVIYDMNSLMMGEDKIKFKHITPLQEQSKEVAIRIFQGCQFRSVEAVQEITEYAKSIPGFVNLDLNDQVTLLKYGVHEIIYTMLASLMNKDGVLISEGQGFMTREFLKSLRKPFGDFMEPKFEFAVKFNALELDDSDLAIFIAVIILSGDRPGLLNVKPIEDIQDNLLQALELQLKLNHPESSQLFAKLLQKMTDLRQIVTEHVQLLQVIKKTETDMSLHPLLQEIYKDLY
PPARg:RXRa, sequence (P19793 whole entry, chain 2 of 2): as the sequence (P19793 whole entry, chain 2 of 2) above
PXR:RXRa, sequence (O75469 whole entry, chain 1 of 2): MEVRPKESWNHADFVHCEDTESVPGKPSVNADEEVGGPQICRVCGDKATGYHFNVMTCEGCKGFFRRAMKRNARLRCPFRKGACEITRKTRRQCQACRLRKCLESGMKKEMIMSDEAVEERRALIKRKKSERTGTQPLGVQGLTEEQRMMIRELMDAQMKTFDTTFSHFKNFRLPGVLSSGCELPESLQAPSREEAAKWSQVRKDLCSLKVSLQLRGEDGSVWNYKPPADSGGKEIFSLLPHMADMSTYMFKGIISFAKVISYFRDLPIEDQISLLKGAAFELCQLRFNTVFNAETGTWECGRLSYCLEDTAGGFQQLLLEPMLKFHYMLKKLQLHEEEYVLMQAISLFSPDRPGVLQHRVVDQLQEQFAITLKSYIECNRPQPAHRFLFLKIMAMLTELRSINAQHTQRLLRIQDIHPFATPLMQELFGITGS
PXR:RXRa, sequence (P19793 whole entry, chain 2 of 2): as the sequence (P19793 whole entry, chain 2 of 2) above

B1: NRC3_wobSeed25_DR1_T25A_o1 (dsDNA)
DNA 1: GCCAAACTAGGTCAAAGGTCAAAGACGAGCCAACCAGCGATTGACAGCGTAGAATGAAGG
DNA 2: CCTTCATTCTACGCTGTCAATCGCTGGTTGGCTCGTCTTTGACCTTTGACCTAGTTTGGC
binding signal (PPARg:RXRa): 14.6 PBM z-score against 500 random probes

B2: NRC3_wobSeed135_DR5_A5C_o1 (dsDNA)
DNA 1: GCCGCACTAGGTCATTGACAGGACAGTGAATAGTAAGCGATTGACAGCGTAGAATGAAGG
DNA 2: CCTTCATTCTACGCTGTCAATCGCTTACTATTCACTGTCCTGTCAATGACCTAGTGCGGC
binding signal (PPARg:RXRa): 7.03 PBM z-score against 500 random probes

B3: NRC3_wobSeed44_DR1_T13G_o1 (dsDNA)
DNA 1: GCTGAATGAGGTGAAAGATCAGGGAACGTGGCGTCGGCGATTGACAGCGTAGAATGAAGG
DNA 2: CCTTCATTCTACGCTGTCAATCGCCGACGCCACGTTCCCTGATCTTTCACCTCATTCAGC
binding signal (PPARg:RXRa): 6.9 PBM z-score against 500 random probes

B4: NRC3_wobSeed30_DR1_C8A_o1 (dsDNA)
DNA 1: GCACTAGAAGGCCAAGGGTCACTCAAGATTAGTCCGGCGATTGACAGCGTAGAATGAAGG
DNA 2: CCTTCATTCTACGCTGTCAATCGCCGGACTAATCTTGAGTGACCCTTGGCCTTCTAGTGC
binding signal (PPARg:RXRa): 6.78 PBM z-score against 500 random probes

B5: NRC3_wobSeed69_DR2_T20C_o1 (dsDNA)
DNA 1: GCAGTCAAAGTTCACTAGGCAACGTAAGATTCAGCTGCGATTGACAGCGTAGAATGAAGG
DNA 2: CCTTCATTCTACGCTGTCAATCGCAGCTGAATCTTACGTTGCCTAGTGAACTTTGACTGC
binding signal (PPARg:RXRa): 6.68 PBM z-score against 500 random probes

B6: NRC3_wobSeed46_DR1_G13A_o1 (dsDNA)
DNA 1: GCTTACCAAGGTAAAAGGTCGTTGATGCACGCCTTGGCGATTGACAGCGTAGAATGAAGG
DNA 2: CCTTCATTCTACGCTGTCAATCGCCAAGGCGTGCATCAACGACCTTTTACCTTGGTAAGC
binding signal (PPARg:RXRa): 6.58 PBM z-score against 500 random probes

B7: NRC3_wobSeed93_DR3_A18G_o1 (dsDNA)
DNA 1: GCAGTCAAAGTTCATCTGGGTAACGTAAGATATGCTGCGATTGACAGCGTAGAATGAAGG
DNA 2: CCTTCATTCTACGCTGTCAATCGCAGCATATCTTACGTTACCCAGATGAACTTTGACTGC
binding signal (PPARg:RXRa): 6.45 PBM z-score against 500 random probes

B8: NRC3_wobSeed18_DR0_G23A_o1 (dsDNA)
DNA 1: GCGATACAGGGTCAAGGCCAGAATACGCGTATTGATGCGATTGACAGCGTAGAATGAAGG
DNA 2: CCTTCATTCTACGCTGTCAATCGCATCAATACGCGTATTCTGGCCTTGACCCTGTATCGC
binding signal (PPARg:RXRa): 6.34 PBM z-score against 500 random probes

B9: NRC3_wobSeed5_DR0_A15C_o1 (dsDNA)
DNA 1: GCCCTTACGGGTCACGGTTATAGCACGGGTGGTACGGCGATTGACAGCGTAGAATGAAGG
DNA 2: CCTTCATTCTACGCTGTCAATCGCCGTACCACCCGTGCTATAACCGTGACCCGTAAGGGC
binding signal (PPARg:RXRa): 6.21 PBM z-score against 500 random probes

B10: NRC3_wobSeed138_DR5_G15T_o1 (dsDNA)
DNA 1: GCGATACAGGGTCATCTAGAGGCCAGAGTATGGAAAGCGATTGACAGCGTAGAATGAAGG
DNA 2: CCTTCATTCTACGCTGTCAATCGCTTTCCATACTCTGGCCTCTAGATGACCCTGTATCGC
binding signal (PPARg:RXRa): 6.11 PBM z-score against 500 random probes

B11: NRC3_wobSeed27_DR1_C13T_o1 (dsDNA)
DNA 1: GCACTCGGAGGATAAAGGTCAGAGCTACGCCAGTGAGCGATTGACAGCGTAGAATGAAGG
DNA 2: CCTTCATTCTACGCTGTCAATCGCTCACTGGCGTAGCTCTGACCTTTATCCTCCGAGTGC
binding signal (PPARg:RXRa): 6.02 PBM z-score against 500 random probes

B12: NRC3_wobSeed93_DR3_C16T_o1 (dsDNA)
DNA 1: GCAGTCAAAGTTCATTTAGGTAACGTAAGATATGCTGCGATTGACAGCGTAGAATGAAGG
DNA 2: CCTTCATTCTACGCTGTCAATCGCAGCATATCTTACGTTACCTAAATGAACTTTGACTGC
binding signal (PPARg:RXRa): 5.92 PBM z-score against 500 random probes

B13: NRC3_wobSeed111_DR4_A17G_o1 (dsDNA)
DNA 1: GCCGAACTAGGTCAGAGCAGGACAGTGAAGGATGATGCGATTGACAGCGTAGAATGAAGG
DNA 2: CCTTCATTCTACGCTGTCAATCGCATCATCCTTCACTGTCCTGCTCTGACCTAGTTCGGC
binding signal (PPARg:RXRa): 5.81 PBM z-score against 500 random probes

B14: NRC3_wobSeed109_DR4_G4C_o1 (dsDNA)
DNA 1: GCCCTCCAAGGTCATAGGAGGTCAGTGAAGACAGATGCGATTGACAGCGTAGAATGAAGG
DNA 2: CCTTCATTCTACGCTGTCAATCGCATCTGTCTTCACTGACCTCCTATGACCTTGGAGGGC
binding signal (PPARg:RXRa): 5.72 PBM z-score against 500 random probes

B15: NRC3_wobSeed43_DR1_A25C_o1 (dsDNA)
DNA 1: GCCCAGACAGGTGAAAGGTAACTCCGTCTGGTACGCGCGATTGACAGCGTAGAATGAAGG
DNA 2: CCTTCATTCTACGCTGTCAATCGCGCGTACCAGACGGAGTTACCTTTCACCTGTCTGGGC
binding signal (PPARg:RXRa): 5.61 PBM z-score against 500 random probes

B16: NRC3_wobSeed113_DR4_A28C_o1 (dsDNA)
DNA 1: GCATATGTAGGTTAGCTGGGGTCATTCCGACTAGGCGCGATTGACAGCGTAGAATGAAGG
DNA 2: CCTTCATTCTACGCTGTCAATCGCGCCTAGTCGGAATGACCCCAGCTAACCTACATATGC
binding signal (PPARg:RXRa): 5.53 PBM z-score against 500 random probes

B17: NRC3_wobSeed90_DR3_G15T_o1 (dsDNA)
DNA 1: GCCATACAGGGTCATCTAGGCCAGAGTAGGGACGGCGCGATTGACAGCGTAGAATGAAGG
DNA 2: CCTTCATTCTACGCTGTCAATCGCGCCGTCCCTACTCTGGCCTAGATGACCCTGTATGGC
binding signal (PPARg:RXRa): 5.29 PBM z-score against 500 random probes

B18: NRC3_wobSeed77_DR3_C16G_o1 (dsDNA)
DNA 1: GCACTTACGGGTCAAGGAGGTTATAGCACGCGTATAGCGATTGACAGCGTAGAATGAAGG
DNA 2: CCTTCATTCTACGCTGTCAATCGCTATACGCGTGCTATAACCTCCTTGACCCGTAAGTGC
binding signal (PPARg:RXRa): 5.22 PBM z-score against 500 random probes

B19: NRC3_wobSeed34_DR1_C5A_o1 (dsDNA)
DNA 1: GCATAGAAAGGTCGAAGGTGAGTATACCCACCCGAAGCGATTGACAGCGTAGAATGAAGG
DNA 2: CCTTCATTCTACGCTGTCAATCGCTTCGGGTGGGTATACTCACCTTCGACCTTTCTATGC
binding signal (PPARg:RXRa): 5.06 PBM z-score against 500 random probes

B20: NRC3_wobSeed117_DR4_T11G_o1 (dsDNA)
DNA 1: GCCGTCAAAGGTCAACTAAGGTAACGTAAAGCACGCGCGATTGACAGCGTAGAATGAAGG
DNA 2: CCTTCATTCTACGCTGTCAATCGCGCGTGCTTTACGTTACCTTAGTTGACCTTTGACGGC
binding signal (RXRa): 9.06 PBM z-score against 500 random probes | binding signal (FXR:RXRa): 8.82 PBM z-score against 500 random probes | binding signal (PPARa:RXRa): 6.96 PBM z-score against 500 random probes | binding signal (RARg:RXRa): 8.38 PBM z-score against 500 random probes | binding signal (PXR:RXRa): 6.64 PBM z-score against 500 random probes | binding signal (LXRa:RXRa): 7.32 PBM z-score against 500 random probes | binding signal (LXRb:RXRa): 6.25 PBM z-score against 500 random probes | binding signal (RARb:RXRa): 6.27 PBM z-score against 500 random probes

B21: NRC3_wobSeed1_DR0_T8A_o1 (dsDNA)
DNA 1: GCCAAACAAGGTCAAGGTCAAAGTCGGTTTGTGCCAGCGATTGACAGCGTAGAATGAAGG
DNA 2: CCTTCATTCTACGCTGTCAATCGCTGGCACAAACCGACTTTGACCTTGACCTTGTTTGGC
binding signal (RXRa): 7.79 PBM z-score against 500 random probes | binding signal (FXR:RXRa): 8.19 PBM z-score against 500 random probes | binding signal (RARg:RXRa): 7.39 PBM z-score against 500 random probes | binding signal (PXR:RXRa): 6.47 PBM z-score against 500 random probes | binding signal (LXRa:RXRa): 6.69 PBM z-score against 500 random probes | binding signal (LXRb:RXRa): 5.84 PBM z-score against 500 random probes | binding signal (RARb:RXRa): 6.01 PBM z-score against 500 random probes

B22: NRC3_wobSeed25_DR1_T8C_o1 (dsDNA)
DNA 1: GCCAAACCAGGTCAAAGGTCAAAGTCGAGCCAACCAGCGATTGACAGCGTAGAATGAAGG
DNA 2: CCTTCATTCTACGCTGTCAATCGCTGGTTGGCTCGACTTTGACCTTTGACCTGGTTTGGC
binding signal (RXRa): 10.8 PBM z-score against 500 random probes | binding signal (FXR:RXRa): 8.73 PBM z-score against 500 random probes | binding signal (VDR:RXRa): 7.07 PBM z-score against 500 random probes | binding signal (PXR:RXRa): 7.42 PBM z-score against 500 random probes | binding signal (LXRa:RXRa): 7.81 PBM z-score against 500 random probes

B23: NRC3_wobSeed113_DR4_G15T_o1 (dsDNA)
DNA 1: GCATATGTAGGTTATCTGGGGTCATTCAGACTAGGCGCGATTGACAGCGTAGAATGAAGG
DNA 2: CCTTCATTCTACGCTGTCAATCGCGCCTAGTCTGAATGACCCCAGATAACCTACATATGC
binding signal (VDR:RXRa): 6.99 PBM z-score against 500 random probes | binding signal (PXR:RXRa): 6.87 PBM z-score against 500 random probes | binding signal (LXRa:RXRa): 8.36 PBM z-score against 500 random probes | binding signal (LXRb:RXRa): 7.25 PBM z-score against 500 random probes
